Assay results from publication PMC3477299 (ACS chemical biology, 2012).
Where two headings read alike, the source gives them in different places.

Experiments:
[1] = molecular target: T1, N-terminal His-tagged Human 4RON tau (human, UniProt P10636-6 1-383); test: ELISA
[2] = molecular target: T1, N-terminal His-tagged Human 4RON tau; test: ELISA; remark: listed apart in the source

IC50 [1]: 59 µM
IC50 [2]: 3 µM
B1: Hsp90β (HSP90AB1) (natural protein)
chain: not shown
